How the values were obtained:
Assay in all cases: EMSA
[1] = target: T1, His-PRH F32E (human, UniProt Q03014 7-270, F32E)
T1 sequence: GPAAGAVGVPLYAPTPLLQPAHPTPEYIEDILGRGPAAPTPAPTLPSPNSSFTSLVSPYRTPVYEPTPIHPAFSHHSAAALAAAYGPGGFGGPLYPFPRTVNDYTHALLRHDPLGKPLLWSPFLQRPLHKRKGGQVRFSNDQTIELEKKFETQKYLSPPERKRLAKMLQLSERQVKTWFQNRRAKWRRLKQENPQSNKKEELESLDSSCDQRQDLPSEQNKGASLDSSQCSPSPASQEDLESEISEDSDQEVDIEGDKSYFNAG

[2] = target: T2, His-PRH (wild type) (human, UniProt Q03014 7-270)
T2 sequence: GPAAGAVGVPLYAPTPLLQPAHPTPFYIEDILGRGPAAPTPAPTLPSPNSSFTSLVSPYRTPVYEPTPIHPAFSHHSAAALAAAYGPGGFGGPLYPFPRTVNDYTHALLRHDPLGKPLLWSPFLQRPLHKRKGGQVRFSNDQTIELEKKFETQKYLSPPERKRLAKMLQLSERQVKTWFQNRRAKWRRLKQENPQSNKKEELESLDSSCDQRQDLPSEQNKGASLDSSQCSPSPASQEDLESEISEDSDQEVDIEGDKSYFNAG

[3] = target: T3, His-PRH R188A,R189A (human, UniProt Q03014 7-270, R188A;R189A)
T3 sequence: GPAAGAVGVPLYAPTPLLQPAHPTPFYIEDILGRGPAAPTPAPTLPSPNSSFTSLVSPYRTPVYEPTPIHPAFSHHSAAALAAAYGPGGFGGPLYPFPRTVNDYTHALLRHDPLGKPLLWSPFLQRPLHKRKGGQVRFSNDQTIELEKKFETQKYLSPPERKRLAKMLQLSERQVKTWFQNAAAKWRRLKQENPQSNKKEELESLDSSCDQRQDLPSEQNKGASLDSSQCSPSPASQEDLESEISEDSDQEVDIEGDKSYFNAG

[4] = target: T4, His-PRH N187A (human, UniProt Q03014 7-270, N187A)
T4 sequence: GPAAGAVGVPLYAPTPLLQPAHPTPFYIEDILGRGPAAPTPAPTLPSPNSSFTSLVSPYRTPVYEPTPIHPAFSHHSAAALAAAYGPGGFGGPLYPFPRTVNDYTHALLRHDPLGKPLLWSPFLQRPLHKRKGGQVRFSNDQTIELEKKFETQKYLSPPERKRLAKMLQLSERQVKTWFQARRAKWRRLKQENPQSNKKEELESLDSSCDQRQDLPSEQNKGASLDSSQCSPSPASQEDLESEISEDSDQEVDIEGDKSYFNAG

B1: PRH-binding site oligonucleotide (dsDNA)
DNA 1: GCTTCTGGGAAGCAATTAAAAAATGGCTCGAGCT
DNA 2: CGAGCCATTTTTTAATTGCTTCCCAGA
binding result [1]: binds
binding result [2]: binds
binding result [3]: no binding
binding result [4]: no binding

From paper PMC2605961
